Consider five substances from patent US20240043504A1.

Experiment [1] concerns the target full-length SARS-CoV-2 spike protein (amino acids M1-T1273 of accession number YP_009724390.1) on Ju (SARS-CoV-2) (UniProt P0DTC2). Kind of experiment: cell-based or functional assay.
The target of experiment [2] is SARS-CoV-2 spike protein, Wuhan-Hu-1 sequence (S-wt), on VSV pseudoparticles (SARS-CoV-2) (UniProt P0DTC2). Kind of experiment: cell-based or functional assay.
For experiment [3], the target named is SARS-CoV-2 spike protein (S-wt, Wuhan-Hu-1, NCBI Accession Number MN908947.3) on VSV pseudoparticles (SARS-CoV-2) (UniProt P0DTC2). As to the kind of experiment: cell-based or functional assay.
In experiment [4] the target is SARS-CoV-2 spike protein on VSV-SARS-CoV-2-S pseudovirus (SARS-CoV-2) (UniProt P0DTC2). As to the kind of experiment: cell-based or functional assay.
Experiment [5] addresses human FcγR3a 176Val allotype receptor (human) (UniProt P08637). As to the kind of experiment: cell-based or functional assay.
Experiment [6] deals with Bt-MERS.hFc (mAb2664-L2) (MERS-CoV) (UniProt K9N5Q8). As to the kind of experiment: Luminex bead binding, supernatant.
For experiment [7], the target named is MERS.hFc (mAb2664-L1) (MERS-CoV) (UniProt K9N5Q8). Kind of experiment: Luminex bead binding, supernatant.
The target of experiment [8] is MERS.mFc (mAb2663-L1) (MERS-CoV) (UniProt K9N5Q8). Kind of experiment: Luminex bead binding, supernatant.
The target of experiment [9] is MOD5-SARS-CoV-2 Spike Protein (RBD)(R319-F541).mmH (SARS-CoV-2). Kind of experiment: Luminex beads, supernatant.
The target of experiment [10] is MOD10-SARS-CoV-2 Spike Protein (RBD)(R319-F541).mmH (SARS-CoV-2). As to the kind of experiment: Luminex beads, supernatant.
Experiment [11] addresses MOD11-SARS-CoV-2 Spike Protein (RBD)(R319-F541).mmH (SARS-CoV-2). Kind of experiment: Luminex beads, supernatant.
The target in experiment [12] is MOD14-SARS-CoV-2 Spike Protein (RBD)(R319-F541).mmH (SARS-CoV-2). Kind of experiment: Luminex beads, supernatant.
Experiment [13] has as its target MOD2-SARS-CoV-2 Spike Protein (RBD)(R319-F541).mmH (SARS-CoV-2). Kind of experiment: Luminex beads, supernatant.
In experiment [14] the target is MOD6-SARS-CoV-2 Spike Protein (RBD)(R319-F541).mmH (SARS-CoV-2). As to the kind of experiment: Luminex beads, supernatant.
Experiment [15] addresses MOD15-SARS-CoV-2 Spike Protein (RBD)(R319-F541).mmH (SARS-CoV-2). Kind of experiment: Luminex beads, supernatant.
For experiment [16], the target named is MOD7-SARS-CoV-2 Spike Protein (RBD)(R319-F541).mmH (SARS-CoV-2). Kind of experiment: Luminex beads, supernatant.
The target of experiment [17] is MOD9-SARS-CoV-2 Spike Protein (RBD)(R319-F541).mmH (SARS-CoV-2). As to the kind of experiment: Luminex beads, supernatant.
For experiment [18], the target named is MOD4-SARS-CoV-2 Spike Protein (RBD)(R319-F541).mmH (SARS-CoV-2). As to the kind of experiment: Luminex beads, supernatant.
The target of experiment [19] is MOD12-SARS-CoV-2 Spike Protein (RBD)(R319-F541).mmH (SARS-CoV-2). As to the kind of experiment: Luminex beads, supernatant.
Experiment [20] concerns the target MOD8-SARS-CoV-2 Spike Protein (RBD)(R319-F541).mmH (SARS-CoV-2). As to the kind of experiment: Luminex beads, supernatant.
Experiment [21] concerns the target MOD3-SARS-CoV-2 Spike Protein (RBD)(R319-F541).mmH (SARS-CoV-2). Kind of experiment: Luminex beads, supernatant.
Experiment [22] has as its target MOD1-SARS-CoV-2 Spike Protein (RBD)(R319-F541).mmH (SARS-CoV-2). Kind of experiment: Luminex beads, supernatant.
The target of experiment [23] is MOD13-SARS-CoV-2 Spike Protein (RBD)(R319-F541).mmH (SARS-CoV-2). As to the kind of experiment: Luminex beads, supernatant.

Chain of human FcγR3a 176Val allotype receptor (human) (P08637 17-254 F176V): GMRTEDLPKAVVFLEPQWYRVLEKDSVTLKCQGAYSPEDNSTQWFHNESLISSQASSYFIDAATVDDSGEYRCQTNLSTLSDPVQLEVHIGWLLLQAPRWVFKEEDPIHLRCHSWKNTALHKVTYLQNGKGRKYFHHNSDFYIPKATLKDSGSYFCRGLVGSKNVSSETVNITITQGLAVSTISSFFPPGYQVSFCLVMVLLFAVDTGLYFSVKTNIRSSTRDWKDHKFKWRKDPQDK

For the substance IgG1 Isotype Control (antibody), the ADCP Max (% ADCP), Jurkat/hCD20/SARS-CoV-2 Spike cells in experiment [1] was determined as 10.4%.

mAb10987 (antibody) registered a Relative neutralization (5 µg/ml, Vero cells) in experiment [2] of 100%. Further, in [3], the IC50 (M), neutralization was 4.06e-11 M. In [4], this substance came in with a Neutralization (1:4 dilution) of 99.3%, a Neutralization (1:20 dilution) of 97.7% and a Neutralization (1:100 dilution) of 94.6%. Further, in [5], the ADCC (Activity (%) (of positive control)) was 29.4% and the ADCC Mean RLU (surrogate reporter assay, spike-expressing target cells) was 12000 RLU. The Binding signal (MFI) in experiment [6] is 172 MFI. The substance also returned a Binding signal (MFI) in experiment [7] of 235 MFI. This substance came in with a Binding signal (MFI) in experiment [8] of 196 MFI.

As to mAb10989 (antibody), in [3], the IC50 (M), neutralization was found to be 7.23e-12 M. This substance had a Neutralization (1:4 dilution) in experiment [4] of 100%. In [4], this substance gave a Neutralization (1:20 dilution) of 99.8%. The substance further displayed a Neutralization (1:100 dilution) in [4] of 98.2%. In experiment [5], this substance showed an ADCC (Activity (%) (of positive control)) of 21.5%. Further, the ADCC Mean RLU (surrogate reporter assay, spike-expressing target cells) in [5] was determined as 10200 RLU. In addition, the Binding signal (MFI) was found to be 186 MFI in experiment [6]; 206 MFI in experiment [7]; 161 MFI in experiment [8]; 3370 MFI in experiment [9]; 15500 MFI in experiment [10]; 16800 MFI in [11]. Further, the Binding signal (MFI) in experiment [12] is 18100 MFI; in [13] it was 16700 MFI; in experiment [14], 19600 MFI; in experiment [15] it was 15900 MFI; in [16], 15200 MFI; in experiment [17], 17800 MFI. For the same substance, the Binding signal (MFI) in [18] is 15800 MFI; in [19], 15100 MFI; in [20] it was 6140 MFI; in experiment [21] it was 18300 MFI.

Consider mAb10933 (antibody), for which the Neutralization (1:100 dilution) in [4] turned out to be 88.4%. In experiment [5], this substance gave an ADCC (Activity (%) (of positive control)) of 68.5% and an ADCC Mean RLU (surrogate reporter assay, spike-expressing target cells) of 9740 RLU.

mAb10934 (antibody): in [5], the ADCC Mean RLU (surrogate reporter assay, spike-expressing target cells) is 11700 RLU. In addition, the Binding signal (MFI) came to 6650 MFI in [9]; 30400 MFI in experiment [10]; 30700 MFI in experiment [11]; 28600 MFI in experiment [12]; 27700 MFI in experiment [13]; 30800 MFI in [14]. The Binding signal (MFI) turned out to be 27800 MFI in experiment [15]; 81 MFI in experiment [22]; 29900 MFI in experiment [16]; 31300 MFI in [17]; 31700 MFI in experiment [18]; 32900 MFI in experiment [19]. Further, the Binding signal (MFI) in [23] is 30500 MFI; in [20] it was 6410 MFI; in experiment [21], 25100 MFI.
